Test results reported in paper PMC10883919.

Target: T1, TcrX D54A D54A (Mycobacterium tuberculosis H37Rv) (UniProt O69730)
T1 sequence: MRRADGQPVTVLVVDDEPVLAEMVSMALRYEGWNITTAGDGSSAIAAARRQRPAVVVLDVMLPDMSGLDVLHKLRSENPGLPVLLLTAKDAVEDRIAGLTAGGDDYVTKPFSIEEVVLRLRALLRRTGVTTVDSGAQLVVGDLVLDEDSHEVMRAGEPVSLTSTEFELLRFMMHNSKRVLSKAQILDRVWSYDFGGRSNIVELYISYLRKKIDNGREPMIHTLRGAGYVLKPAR
Assay: EMSA

“TACGACACGCTCAACCGAGATGCGGTGCTGCGTCACAGCGTCAAGTATCCGCACACGGCTGAGCAGACGCCATGCGGATCCTATGTGCGCGCTATGAAACCCGATTTG (double strand) [PtcrXY]” was tested, and the binding was “binds”.
